Where two headings read alike, the source gives them in different places.
Tests used:
ParB-eGFP (Spo0J) [1] = biological target: T1, ParB-eGFP (Spo0J) (Bacillus subtilis, UniProt P26497 1-282); assay: single-molecule colocalization with lambda DNA
T1 sequence: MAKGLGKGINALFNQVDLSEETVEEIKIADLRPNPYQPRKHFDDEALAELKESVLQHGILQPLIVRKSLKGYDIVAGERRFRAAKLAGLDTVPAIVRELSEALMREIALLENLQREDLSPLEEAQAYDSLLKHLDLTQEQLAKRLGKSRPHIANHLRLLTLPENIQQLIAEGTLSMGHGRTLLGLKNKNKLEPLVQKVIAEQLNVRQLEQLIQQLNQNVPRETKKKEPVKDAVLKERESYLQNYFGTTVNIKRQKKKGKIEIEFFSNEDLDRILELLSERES

ParB-eGFP (Spo0J) [2] = biological target: T1, ParB-eGFP (Spo0J); assay: single-molecule colocalization with lambda DNA; remark: listed apart in the source

B1: ns-oligo-Cy5 (58 bp) (dsDNA)
DNA 1: CGAAGGCTACGTCCAGGAGCGCACCATCTTCTTCAAGGACGACGGCAACTACAAGACC
DNA 2: GGTCTTGTAGTTGCCGTCGTCCTTGAAGAAGATGGTGCGCTCCTGGACGTAGCCTTCG
ParB-eGFP (Spo0J) [1]
  binding signal: ~2 fold shorter lifetime than parS-oligo
ParB-eGFP (Spo0J) [2]
  binding signal: ~3 fold fewer multimer-oligo complexes than parS-oligo

From paper PMC9458438
